Values of other authors, collected in paper PMC7866199.

Key:
[1] = target: GRK6A C-terminal PDZ ligand (Homo sapiens) (UniProt P43250)
[2] = target: NPT2A C-terminal 22 aa (Homo sapiens) (UniProt Q06495)
Sequence of UniProt Q06495 (Q06495 618-639): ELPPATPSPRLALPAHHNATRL

Sequence of UniProt P43250 (P43250 555-576): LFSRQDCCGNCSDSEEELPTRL

- Kd [1]: 4 µM
- Kd [2]: 4 µM
Substance: NHERF1 (from UniProt O14745)
